Assay results from US20090232837A1.

Target: RTQKEASI peptide (mammalian)
Test: ELISA, peptide adsorbed to wells (10 mg/ml)

Work on Negative control (ELISA of Table 3) yielded an OD of 0.141 OD.
